The experiment addresses MR1-restricted antigen synthesized by S. Typhimurium and highly abundant in that microbe peptide on MR1 (human). In words: T cell clone or line.
[1] abbreviates: chains alpha TRAV1-2 TRAJ33 CDR3:beta TRBV3-1 TRBJ2-2 CDR3.

B1: 450A9 (peptide)
chain 1: CAVRDSNYQLI
chain 2: CSAREVEGTYEQY
Under “chains alpha TRAV1-2 TRAJ33 CDR3:beta TRBV20-1 TRBJ2-7 CDR3”, B1 gave a geometric MFI of 2030.

B2: 427D8-2 (peptide)
chain 1: CAVMDSNYQLI
chain 2: CASSLLRQGTEKLF
In the case of B2, the geometric MFI (chains alpha TRAV1-2 TRAJ33 CDR3:beta TRBV5-1 TRBJ1-4 CDR3) was 3440.

B3: 450B9 (peptide)
chain 1: CAVMDSNYQLI
chain 2: CASTPSGEFSEAF
As for B3, the geometric MFI (chains alpha TRAV1-2 TRAJ33 CDR3:beta TRBV6-1 TRBJ1-1 CDR3) was found to be 2520.

B4: D0033A2 (peptide)
chain 1: CAVTDSNYQLI
chain 2: CASSQAETELNTGELF
As to B4, the geometric MFI under setting [1] worked out at 2480.

B5: D0033A6 (peptide)
chain 1: CAVVDSNYQLI
chain 2: CASSHSSGTGGNEQF
As for B5, where the note is “chains alpha TRAV1-2 TRAJ33 CDR3:beta TRBV4-2 TRBJ2-1 CDR3”, the geometric MFI worked out at 2620.

B6: 571F3-2 (peptide)
chain 1: CAVRDSNYQLI
chain 2: CASSEASGGTDTQY
Molecule B6 displayed a geometric MFI (chains alpha TRAV1-2 TRAJ33 CDR3:beta TRBV6-4 TRBJ2-3 CDR3) of 2760.

B7: 403A9 (peptide)
chain 1: CAVVDSNYQLI
chain 2: CSARDGGEAYNEQF
As to B7, the geometric MFI (chains alpha TRAV1-2 TRAJ33 CDR3:beta TRBV20-1 TRBJ2-1 CDR3) amounted to 1600.

B8: D0033A10 (peptide)
chain 1: CAVTDSNYQLI
chain 2: CASSSGLEVTGELF
Under setting [1], B8 registered a geometric MFI of 2130.
